The target in one experiment is HLA-A*01:01. The experiment in a line: IEDB peptide-MHC binding, purified MHC/direct/fluorescence; filed as Kd, often an IC50 or EC50 that approximates it; ≥ and ≤ were set here for values at or beyond the usual limits of such assays.
Experiment [1] addresses HLA-A*02:01. Described as above. To be noted: source organism: Camelpox virus CMS.
The target of another experiment is HLA-A*03:01. The description is as above.
The target of the next experiment is HLA-A*11:01. Described as above.
The target in experiment [2] is HLA-A*31:01. The experiment is described as above. To be noted: source organism: Camelpox virus CMS.
The next experiment concerns the target HLA-A*69:01. The description is as above.
The target of the next experiment is HLA-B*07:02. The description is as above.
A further experiment has as its target HLA-B*08:01. The experiment is described as above.
In another experiment the target is HLA-B*08:03. The experiment is described as above. To be noted: source organism: Variola virus.
For experiment [3], the target named is HLA-B*27:05. The experiment is described as above. To be noted: source organism: Camelpox virus CMS.
The target of another experiment is HLA-B*40:01. The description is as above.
A further experiment concerns the target HLA-B*48:01. Described as above.
Another experiment has as its target HLA-B*58:01. The description is as above.
The next experiment deals with HLA-C*12:03. Described as above. Conditions: source organism: Vaccinia virus Tian Tan.
The target of another experiment is HLA-A*02:06. The experiment in a line: IEDB peptide-MHC binding, purified MHC/competitive/fluorescence; filed as Kd, often an IC50 or EC50 that approximates it; ≥ and ≤ were set here for values at or beyond the usual limits of such assays. Conditions: source organism: Vaccinia virus Tian Tan.
The target in experiment [4] is HLA-A*26:01. Described as above. Conditions: source organism: Vaccinia virus Tian Tan.
The target of a further experiment is HLA-A*26:03. The description is as above.
Another experiment deals with HLA-A*68:02. The experiment is described as above.
Experiment [5] has as its target HLA-B*15:01. The experiment is described as above. To be noted: source organism: Vaccinia virus Tian Tan.
The target of the next experiment is HLA-B*15:17. The description is as above.
The target of experiment [6] is HLA-B*18:01. Described as above. Conditions: source organism: Vaccinia virus Tian Tan.
The next experiment addresses HLA-B*35:01. The experiment is described as above. To be noted: source organism: Vaccinia virus Tian Tan.
Another experiment addresses HLA-A*30:01. The experiment can be described thus: IEDB peptide-MHC binding, purified MHC/competitive/radioactivity; filed as Kd, often an IC50 or EC50 that approximates it; ≥ and ≤ were set here for values at or beyond the usual limits of such assays. Conditions: source organism: Vaccinia virus WR.
For a further experiment, the target named is HLA-A*24:03. The experiment in a line: IEDB peptide-MHC binding, purified MHC/direct/fluorescence; filed as Kd, often an IC50 or EC50 that approximates it; ≥ and ≤ were set here for values at or beyond the usual limits of such assays. To be noted: source organism: Francisella tularensis subsp. holarctica LVS.
A further experiment addresses HLA-B*08:02. The experiment is described as above. To be noted: source organism: Francisella tularensis subsp. tularensis FSC033.
For experiment [7], the target named is HLA-B*15:01. The description is as above.
For the next experiment, the target named is HLA-B*15:09. Described as above. Conditions: source organism: Francisella tularensis subsp. tularensis FSC033.
Experiment [8] deals with HLA-B*18:01. Described as above.
Experiment [9] has as its target HLA-A*02:01. The experiment in a line: IEDB peptide-MHC binding, purified MHC/competitive/fluorescence; filed as Kd, often an IC50 or EC50 that approximates it; ≥ and ≤ were set here for values at or beyond the usual limits of such assays.
Experiment [10] has as its target HLA-A*26:02. The experiment is described as above. Conditions: source organism: Francisella tularensis subsp. tularensis FSC198.
Experiment [11] concerns the target HLA-A*31:01. Described as above.
The target in experiment [12] is HLA-B*57:01. Described as above. To be noted: source organism: Francisella tularensis subsp. tularensis FSC198.
For experiment [13], the target named is HLA-A*26:01. The experiment can be described thus: IEDB peptide-MHC binding, purified MHC/direct/fluorescence; filed as Kd, often an IC50 or EC50 that approximates it; ≥ and ≤ were set here for values at or beyond the usual limits of such assays. To be noted: source organism: Variola virus.
Experiment [14] deals with HLA-A*26:02. Described as above. Conditions: source organism: Variola virus.
The next experiment addresses HLA-B*46:01. The description is as above. Conditions: source organism: Camelpox virus M-96.
The target of experiment [15] is HLA-B*57:01. The experiment is described as above. To be noted: source organism: Camelpox virus M-96.
The target of experiment [16] is HLA-B*27:05. The experiment can be described thus: IEDB peptide-MHC binding, purified MHC/competitive/fluorescence; filed as Kd, often an IC50 or EC50 that approximates it; ≥ and ≤ were set here for values at or beyond the usual limits of such assays. To be noted: source organism: Vaccinia virus Copenhagen.
Where [17] appears, read: source organism: Camelpox virus CMS.
[18] abbreviates: source organism: Vaccinia virus Tian Tan.
Where [19] appears, read: source organism: Francisella tularensis subsp. holarctica LVS.
[20] abbreviates: source organism: Francisella tularensis subsp. tularensis FSC033.
[21] abbreviates: source organism: Francisella tularensis subsp. tularensis FSC198.
[22] abbreviates: source organism: Camelpox virus M-96.
Where [23] appears, read: source organism: Vaccinia virus Copenhagen.

The term Kd denotes the constant that tells how readily two partners part at equilibrium.

Consider KVFFGPIYY, for which the Kd was at least 20 µM with HLA-A*01:01 (setting [17]); at least 20 µM in the experiment with HLA-A*02:01 [1]; 0.029 µM with HLA-A*03:01 (setting [17]); 0.022 µM with HLA-A*11:01 (setting [17]); 1.29 µM with HLA-A*31:01 [2]; at least 20 µM with HLA-A*69:01 (setting [17]). The Kd with HLA-B*07:02 (setting [17]), with HLA-B*08:01 (source organism: Variola virus), with HLA-B*08:03, in the experiment with HLA-B*27:05 [3], in the experiment with HLA-B*40:01 (setting [17]) and with HLA-B*48:01 (setting [17]) was at least 20 µM throughout. Further, the Kd in the experiment with HLA-B*58:01 (setting [17]) is 0.021 µM; with HLA-C*12:03, 0.045 µM; with HLA-A*02:06, 1.8 µM; with HLA-A*26:01 [4] it was 3 µM; in the experiment with HLA-A*26:03 (setting [18]), at least 20 µM; in the experiment with HLA-A*68:02 (setting [18]) it was at least 20 µM. In addition, the Kd in the experiment with HLA-B*15:01 [5] was 0.423 µM; with HLA-B*15:17 (setting [18]), 0.0216 µM; in the experiment with HLA-B*18:01 [6] it was at least 20 µM; in the experiment with HLA-B*35:01, 0.333 µM; with HLA-A*30:01, 0.154 µM.

With IYTVIYYIF, the Kd is at least 20 µM with HLA-A*01:01 (setting [19]); at least 20 µM in the experiment with HLA-A*11:01 (setting [19]); 0.27 µM in the experiment with HLA-A*24:03; at least 20 µM in the experiment with HLA-B*07:02 (setting [19]); at least 20 µM in the experiment with HLA-B*08:01 (setting [20]); at least 20 µM in the experiment with HLA-B*08:02. Besides, the Kd in the experiment with HLA-B*15:01 [7] (setting [19]) was at least 20 µM; with HLA-B*15:09 it was at least 20 µM; with HLA-B*18:01 [8] (setting [20]), 8.93 µM; in the experiment with HLA-B*58:01 (setting [20]) it was 0.15 µM; in the experiment with HLA-A*02:01 [9] (setting [21]), at least 20 µM; with HLA-A*26:02 [10], 1.13 µM. Besides, the Kd in the experiment with HLA-A*26:03 (setting [21]) was at least 20 µM; with HLA-A*31:01 [11] (setting [21]) it was at least 20 µM; with HLA-A*68:02 (setting [21]), 3.96 µM; with HLA-B*15:17 (setting [21]), 0.439 µM; in the experiment with HLA-B*57:01 [12], at least 20 µM.

Regarding SLYKYLLLR, the Kd with HLA-A*01:01 (setting [22]) was at least 20 µM; with HLA-A*03:01 (setting [22]) it was 0.031 µM; with HLA-A*11:01 (setting [22]), 0.047 µM; in the experiment with HLA-A*26:01 [13] it was at least 20 µM; in the experiment with HLA-A*26:02 [14] it was at least 20 µM; with HLA-A*69:01 (setting [22]), at least 20 µM. Besides, the Kd with HLA-B*07:02 (setting [22]), with HLA-B*08:01 (source organism: Variola virus), with HLA-B*08:03, with HLA-B*15:01 [7] (setting [22]), in the experiment with HLA-B*18:01 [8] (setting [22]) and with HLA-B*40:01 (setting [22]) was at least 20 µM each time. Moreover, the Kd with HLA-B*46:01 is at least 20 µM; with HLA-B*48:01 (setting [22]), at least 20 µM; with HLA-B*57:01 [15], at least 20 µM; in the experiment with HLA-B*58:01 (setting [22]), at least 20 µM; in the experiment with HLA-A*02:01 [9] (setting [23]), 0.555 µM; with HLA-A*26:03 (setting [23]), at least 20 µM. For the same sequence, the Kd with HLA-A*31:01 [11] (setting [23]) was 0.00117 µM; with HLA-A*68:02 (setting [23]) it was 3.9 µM; with HLA-B*15:17 (setting [23]) it was at least 20 µM; with HLA-B*27:05 [16], 2.46 µM.
